B1: IARS (protein, UniProt P41252 1-1262, looked up)
Isoleucine--tRNA ligase, …: MLQQVPENINFPAEEEKILEFWTEFNCFQECLKQSKHKPKFTFYDGPPFATGLPHYGHILAGTIKDIVTRYAHQSGFHVDRRFGWDCHGLPVEYEIDKTLGIRGPEDVAKMGITEYNNQCRAIVMRYSAEWKSTVSRLGRWIDFDNDYKTLYPQFMESVWWVFKQLYDKGLVYRGVKVMPFSTACNTPLSNFESHQNYKDVQDPSVFVTFPLEEDETVSLVAWTTTPWTLPSNLAVCVNPEMQYVKIKDVARGRLLILMEARLSALYKLESDYEILERFPGAYLKGKKYRPLFDYFLKCKENGAFTVLVDNYVKEEEGTGVVHQAPYFGAEDYRVCMDFNIIRKDSLPVCPVDASGCFTTEVTDFAGQYVKDADKSIIRTLKEQGRLLVATTFTHSYPFCWRSDTPLIYKAVPSWFVRVENMVDQLLRNNDLCYWVPELVREKRFGNWLKDARDWTISRNRYWGTPIPLWVSDDFEEVVCIGSVAELEELSGAKISDLHRESVDHLTIPSRCGKGSLHRISEVFDCWFESGSMPYAQVHYPFENKREFEDAFPADFIAEGIDQTRGWFYTLLVLATALFGQPPFKNVIVNGLVLASDGQKMSKRKKNYPDPVSIIQKYGADALRLYLINSPVVRAENLRFKEEGVRDVLKDVLLPWYNAYRFLIQNVLRLQKEEEIEFLYNENTVRESPNITDRWILSFMQSLIGFFETEMAAYRLYTVVPRLVKFVDILTNWYVRMNRRRLKGENGMEDCVMALETLFSVLLSLCRLMAPYTPFLTELMYQNLKVLIDPVSVQDKDTLSIHYLMLPRVREELIDKKTESAVSQMQSVIELGRVIRDRKTIPIKYPLKEIVVIHQDPEALKDIKSLEKYIIEELNVRKVTLSTDKNKYGIRLRAEPDHMVLGKRLKGAFKAVMTSIKQLSSEELEQFQKTGTIVVEGHELHDEDIRLMYTFDQATGGTAQFEAHSDAQALVLLDVTPDQSMVDEGMAREVINRIQKLRKKCNLVPTDEITVYYKAKSEGTYLNSVIESHTEFIFTTIKAPLKPYPVSPSDKVLIQEKTQLKGSELEITLTRGSSLPGPACAYVNLNICANGSEQGGVLLLENPKGDNRLDLLKLKSVVTSIFGVKNTELAVFHDETEIQNQTDLLSLSGKTLCVTAGSAPSLINSSSTLLCQYINLQLLNAKPQECLMGTVGTLLLENPLGQNGLTHQGLLYEAAKVFGLRSRKLKLFLNETQTQEITEDIPVKTLNMKTVYVSVLPTTADF
B2: RRP15 (protein, UniProt Q9Y3B9 2-282, looked up)
RRP15-like protein: AAAAPDSRVSEEENLKKTPKKKMKMVTGAVASVLEDEATDTSDSEGSCGSEKDHFYSDDDAIEADSEGDAEPCDKENENDGESSVGTNMGWADAMAKVLNKKTPESKPTILVKNKKLEKEKEKLKQERLEKIKQRDKRLEWEMMCRVKPDVVQDKETERNLQRIATRGVVQLFNAVQKHQKNVDEKVKEAGSSMRKRAKLISTVSKKDFISVLRGMDGSTNETASSRKKPKAKQTEVKSEEGPGWTILRDDFMMGASMKDWDKESDGPDDSRPESASDSDT
B3: LAMB3 (protein, UniProt Q13751 18-1172, looked up)
Laminin subunit beta-3: QQACSRGACYPPVGDLLVGRTRFLRASSTCGLTKPETYCTQYGEWQMKCCKCDSRQPHNYYSHRVENVASSSGPMRWWQSQNDVNPVSLQLDLDRRFQLQEVMMEFQGPMPAGMLIERSSDFGKTWRVYQYLAADCTSTFPRVRQGRPQSWQDVRCQSLPQRPNARLNGGKVQLNLMDLVSGIPATQSQKIQEVGEITNLRVNFTRLAPVPQRGYHPPSAYYAVSQLRLQGSCFCHGHADRCAPKPGASAGPSTAVQVHDVCVCQHNTAGPNCERCAPFYNNRPWRPAEGQDAHECQRCDCNGHSETCHFDPAVFAASQGAYGGVCDNCRDHTEGKNCERCQLHYFRNRRPGASIQETCISCECDPDGAVPGAPCDPVTGQCVCKEHVQGERCDLCKPGFTGLTYANPQGCHRCDCNILGSRRDMPCDEESGRCLCLPNVVGPKCDQCAPYHWKLASGQGCEPCACDPHNSLSPQCNQFTGQCPCREGFGGLMCSAAAIRQCPDRTYGDVATGCRACDCDFRGTEGPGCDKASGRCLCRPGLTGPRCDQCQRGYCNRYPVCVACHPCFQTYDADLREQALRFGRLRNATASLWSGPGLEDRGLASRILDAKSKIEQIRAVLSSPAVTEQEVAQVASAILSLRRTLQGLQLDLPLEEETLSLPRDLESLDRSFNGLLTMYQRKREQFEKISSADPSGAFRMLSTAYEQSAQAAQQVSDSSRLLDQLRDSRREAERLVRQAGGGGGTGSPKLVALRLEMSSLPDLTPTFNKLCGNSRQMACTPISCPGELCPQDNGTACGSRCRGVLPRAGGAFLMAGQVAEQLRGFNAQLQRTRQMIRAAEESASQIQSSAQRLETQVSASRSQMEEDVRRTRLLIQQVRDFLTDPDTDAATIQEVSEAVLALWLPTDSATVLQKMNEIQAIAARLPNVDLVLSQTKQDIARARRLQAEAEEARSRAHAVEGQVEDVVGNLRQGTVALQEAQDTMQGTSRSLRLIQDRVAEVQQVLRPAEKLVTSMTKQLGDFWTRMEELRHQARQQGAEAVQAQQLAEGASEQALSAQEGFERIKQKYAELKDRLGQSSMLGEQGARIQSVKTEAEELFGETMEMMDRMKDMELELLRGSQAIMLRSADLTGLEKRVEQIRDHINGRVLYYATCK
B4: IPO7 (protein, UniProt O95373 1-1038, looked up)
Importin-7: MDPNTIIEALRGTMDPALREAAERQLNEAHKSLNFVSTLLQITMSEQLDLPVRQAGVIYLKNMITQYWPDRETAPGDISPYTIPEEDRHCIRENIVEAIIHSPELIRVQLTTCIHHIIKHDYPSRWTAIVDKIGFYLQSDNSACWLGILLCLYQLVKNYEYKKPEERSPLVAAMQHFLPVLKDRFIQLLSDQSDQSVLIQKQIFKIFYALVQYTLPLELINQQNLTEWIEILKTVVNRDVPNETLQVEEDDRPELPWWKCKKWALHILARLFERYGSPGNVSKEYNEFAEVFLKAFAVGVQQVLLKVLYQYKEKQYMAPRVLQQTLNYINQGVSHALTWKNLKPHIQGIIQDVIFPLMCYTDADEELWQEDPYEYIRMKFDVFEDFISPTTAAQTLLFTACSKRKEVLQKTMGFCYQILTEPNADPRKKDGALHMIGSLAEILLKKKIYKDQMEYMLQNHVFPLFSSELGYMRARACWVLHYFCEVKFKSDQNLQTALELTRRCLIDDREMPVKVEAAIALQVLISNQEKAKEYITPFIRPVMQALLHIIRETENDDLTNVIQKMICEYSEEVTPIAVEMTQHLAMTFNQVIQTGPDEEGSDDKAVTAMGILNTIDTLLSVVEDHKEITQQLEGICLQVIGTVLQQHVLEFYEEIFSLAHSLTCQQVSPQMWQLLPLVFEVFQQDGFDYFTDMMPLLHNYVTVDTDTLLSDTKYLEMIYSMCKKVLTGVAGEDAECHAAKLLEVIILQCKGRGIDQCIPLFVEAALERLTREVKTSELRTMCLQVAIAALYYNPHLLLNTLENLRFPNNVEPVTNHFITQWLNDVDCFLGLHDRKMCVLGLCALIDMEQIPQVLNQVSGQILPAFILLFNGLKRAYACHAEHENDSDDDDEAEDDDETEELGSDEDDIDEDGQEYLEILAKQAGEDGDDEDWEEDDAEETALEGYSTIIDDEDNPVDEYQIFKAIFQTIQNRNPVWYQALTHGLNEEQRKQLQDIATLADQRRAAHESKMIEKHGGYKFSAPVVPSSFNFGGPAPGMN
B5: HNRNPUL1 (protein, UniProt Q9BUJ2 1-856, looked up)
Heterogeneous nuclear …: MDVRRLKVNELREELQRRGLDTRGLKAELAERLQAALEAEEPDDERELDADDEPGRPGHINEEVETEGGSELEGTAQPPPPGLQPHAEPGGYSGPDGHYAMDNITRQNQFYDTQVIKQENESGYERRPLEMEQQQAYRPEMKTEMKQGAPTSFLPPEASQLKPDRQQFQSRKRPYEENRGRGYFEHREDRRGRSPQPPAEEDEDDFDDTLVAIDTYNCDLHFKVARDRSSGYPLTIEGFAYLWSGARASYGVRRGRVCFEMKINEEISVKHLPSTEPDPHVVRIGWSLDSCSTQLGEEPFSYGYGGTGKKSTNSRFENYGDKFAENDVIGCFADFECGNDVELSFTKNGKWMGIAFRIQKEALGGQALYPHVLVKNCAVEFNFGQRAEPYCSVLPGFTFIQHLPLSERIRGTVGPKSKAECEILMMVGLPAAGKTTWAIKHAASNPSKKYNILGTNAIMDKMRVMGLRRQRNYAGRWDVLIQQATQCLNRLIQIAARKKRNYILDQTNVYGSAQRRKMRPFEGFQRKAIVICPTDEDLKDRTIKRTDEEGKDVPDHAVLEMKANFTLPDVGDFLDEVLFIELQREEADKLVRQYNEEGRKAGPPPEKRFDNRGGGGFRGRGGGGGFQRYENRGPPGGNRGGFQNRGGGSGGGGNYRGGFNRSGGGGYSQNRWGNNNRDNNNSNNRGSYNRAPQQQPPPQQPPPPQPPPQQPPPPPSYSPARNPPGASTYNKNSNIPGSSANTSTPTVSSYSPPQPSYSQPPYNQGGYSQGYTAPPPPPPPPPAYNYGSYGGYNPAPYTPPPPPTAQTYPQPSYNQYQQYAQQWNQYYQNQGQWPPYYGNYDYGSYSGNTQGGTSTQ
B6: ABCF3 (protein, UniProt Q9NUQ8 2-709, looked up)
ATP-binding cassette …: ATCAEILRSEFPEIDGQVFDYVTGVLHSGSADFESVDDLVEAVGELLQEVSGDSKDDAGIRAVCQRMYNTLRLAEPQSQGNSQVLLDAPIQLSKITENYDCGTKLPGLLKREQSSTVNAKKLEKAEARLKAKQEKRSEKDTLKTSNPLVLEEASASQAGSRKESRLESSGKNKSYDVRIENFDVSFGDRVLLAGADVNLAWGRRYGLVGRNGLGKTTLLKMLATRSLRVPAHISLLHVEQEVAGDDTPALQSVLESDSVREDLLRRERELTAQIAAGRAEGSEAAELAEIYAKLEEIEADKAPARASVILAGLGFTPKMQQQPTREFSGGWRMRLALARALFARPDLLLLDEPTNMLDVRAILWLENYLQTWPSTILVVSHDRNFLNAIATDIIHLHSQRLDGYRGDFETFIKSKQERLLNQQREYEAQQQYRQHIQVFIDRFRYNANRASQVQSKLKMLEKLPELKPVDKESEVVMKFPDGFEKFSPPILQLDEVDFYYDPKHVIFSRLSVSADLESRICVVGENGAGKSTMLKLLLGDLAPVRGIRHAHRNLKIGYFSQHHVEQLDLNVSAVELLARKFPGRPEEEYRHQLGRYGISGELAMRPLASLSGGQKSRVAFAQMTMPCPNFYILDEPTNHLDMETIEALGRALNNFRGGVILVSHDERFIRLVCRELWVCEGGGVTRVEGGFDQYRALLQEQFRREGFL

Test system: GFP-14-3-3β
Test: GFP-14-3-3β co-IP with LC-MS/MS, untreated GFP-14-3-3β versus GFP control (14-3-3 interactome)
Assay type: binding, human
Settings: GFP-14-3-3β co-IP LC-MS/MS; untreated vs GFP; student's t-test; label-free quantification, 3 replicates each

Going from B1 to B2, the “Difference (log2), untreated vs GFP” value rises from -0.1582 log2 to 0.6496 log2.

Compared with B3, B4 is lower in “Difference (log2), untreated vs GFP” value: 0.9719 log2 for the first, 0.3162 log2 for the second.

Compared with B5, B6 is higher in “Difference (log2), untreated vs GFP” value: 0.2278 log2 for the first, 1.23 log2 for the second.

Test system: GFP-14-3-3β and its binding proteins
Test: GFP-14-3-3β co-IP with LC-MS/MS label-free quantification, untreated versus PP1c-treated
Design: species or system human
Settings: GFP-14-3-3β co-IP LC-MS/MS; PP1 vs untreated; student's t-test; label-free quantification, 3 replicates each

First: B1
Second: B2
The “Difference (log2), PP1 vs untreated” value of the first is higher: -0.336 log2 for the first, -0.3533 log2 for the second.

Going from B3 to B4, the “Difference (log2), PP1 vs untreated” value rises from -0.3598 log2 to -0.3489 log2.

First: B5
Second: B6
The “Difference (log2), PP1 vs untreated” value of the first is higher: -0.3133 log2 for the first, -0.3214 log2 for the second.

Reference: paper PMC7367873, “Dissecting the sequence determinants for dephosphorylation by the catalytic subunits of phosphatases PP1 and PP2A” (Nature Communications, 2020)
